“And” between values parts separate entries of the source, which are not always exact repeats. Equal entries are not always repeated.
Target: the molecule itself
Assay: SEC; preparative HiLoad 26/600 Superdex 200 column after glutathione affinity chromatography; tetramer V_elution about 170 mL

B1: Plasmodium falciparum glutathione-S-transferase (enzyme, UniProt Q8ILQ7 1-211, looked up)
chain: MGDNIVLYYFDARGKAELIRLIFAYLGIEYTDKRFGVNGDAFVEFKNFKKEKDTPFEQVPILQIGDLILAQSQAIVRYLSKKYNICGESELNEFYADMIFCGVQDIHYKFNNTNLFKQNETTFLNEDLPKWSGYFEKLLKKNHTNNNNDKYYFVGNNLTYADLAVFNLYDDIETKYPSSLKNFPLLKAHNEFISNLPNIKNYITNRKESVY
notes: glutathione S-transferase of Plasmodium falciparum; recombinant; printed M.W. of the dimer ~56 kDa; Found as dimer and as tetramer; The dimer for crystallization was eluted with and stabilised by 10 mM S-(p-bromobenzyl)-GSH; The tetramer was labelled with Alexa Fluor 488 only after SEC and DLS; also called PfGST
  stoichiometry N: 2 and 4

From article PMC8854672, “Tracing transport of protein aggregates in microgravity versus unit gravity crystallization” (NPJ Microgravity, 2022)
